These results are taken from article PMC5581740.

The test system of the series is Cc1cn([C@H]2C[C@H](O)[C@@H](COP(=O)(O)OP(=O)(O)O[C@H]3O[C@H](C)[C@H](O)[C@H](N)[C@H]3O)O2)c(=O)[nH]c1=O. Nature of the series: purified protein. To be noted: 5 mM N10-formyl-THF, 50 mM HEPPS pH 8.0, 0.20 uM enzyme.

Consider FdtF (Salmonella enterica), for which the Michaelis-Menten constant (Km) amounted to 100 ± 10 µM, the kcat was 15.5 ± 0.8 s⁻¹ and the kcat/Km turned out to be 160000 ± 18000 M⁻¹ s⁻¹.

As a reminder, the Km is the substrate concentration at which the rate is half of its maximum. For orientation: kcat means the number of substrate molecules converted per active site and unit of time at saturation. One may read the kcat/Km as the second-order rate constant that governs catalysis at low substrate concentration.
